{"source": "patent US20230303667A1", "about": "(EMORY UNIVERSITY, published 2023)", "binders": {"B1": {"name": "9.6.3D06 (antibody, V domains shown)", "VH": "EVQLLESGGGLVQPGGSLRLSCAASGFTFSKYAMIWVRQAPGKGLQWVAGINKSGGRTYYADSVRGRFTISRDNSKNTLYLQMKSLRADDTAMYYCAKEGSPLSDVLLVAAPFGWFDPWGQGTLVTVSS", "VL": "DIQMTQSPSTLSASVGDRVTITCRASQRINNLVAWYQQKPGKAPKVMIYDASSLKSGVPSRFSGSGSGTEFTLTISSLQPDDFATYFCQQYDTDSGWTFGQGTKVEIK"}, "B2": {"name": "5.6.1A02 (antibody, V domains shown)", "VH": "EVQLVESGGGLIQPGGSLRLSCAASGFAVRSNYLSWVRQAPGKGLEWVSLIYSGGLTAYADSVEGRFTISRDNSKNTLYLQMNSLRVEDTALYYCARVASSAGTFYYGMDVWGQGTTVTVSS", "VL": "not shown"}, "B3": {"name": "2.1.1D07 (antibody, V domains shown)", "VH": "EVQLLESGGGLVQPGGSLRLSCAASGFTFSTYGMSWVRQAPGKGLEWVSGISGSGGITYYADSVRGRFTISRDNSKNTLYLRMNSLRAEDTAVYYCAKVGEYYDFWSGYSPFEYWGQGTL", "VL": "EIVLTQSPGTLSLSPGERATLSCRASQSVSSSYLAWYQQKPGQAPRLLIYGAFNRATGIPDRFSGSGSGTDFTLTISRLEPEDFAVYYCQLYGSSPWTFGQGTKVEIK"}, "B4": {"name": "5.1.10B3 (antibody, V domains shown)", "VH": "EVQLVESGGGLVQPGGSLRLSCAASGFTFRSYDMHWVRQATGKGLEWVSAIGTAGDTYYPGSVKGRFTISRENAKNSLYLQMNSLRAEDTAVYYCARVRFGDTAVDYWGQGTLVTVSS", "VL": "DIQMTQSPSSLSASVGDRVTITCRASQSISSFLNWHQQKPGKAPKLLIYAASSLQSGVPSRFSGSGSGTDFTLTISSLQPEDFAIYYCQQSYISPFTFGPGTKVDIK"}, "B5": {"name": "2.1.1D05 (antibody, V domains shown)", "VH": "EVQLVESGGGLVKPGGSLRLSCAASGFTFSNAWMNWVRQAPGKGLEWVGRIKSKTDGGAADYAAPVKGRFTISRDDSKNTLYLQMNSLKTEDTAVYFCTTVYRYNYDSVWGQGTLVTVSS", "VL": "QSVLTQPPSVSGAPGQRVTISCTGSSSNIGAGYDVYWYQQLPGTAPKLLIYGNSNRPSGVPDRFSGSKSGTSASLAITGLQAEDEADYYCQSFDSSLRDSWVFGGGTKLTVL"}}}
{"target": "T1, Ebola Zaire (Kikwit strain) glycoprotein (Ebola Zaire (Kikwit strain), UniProt P87666 33-676)", "T1 sequence": "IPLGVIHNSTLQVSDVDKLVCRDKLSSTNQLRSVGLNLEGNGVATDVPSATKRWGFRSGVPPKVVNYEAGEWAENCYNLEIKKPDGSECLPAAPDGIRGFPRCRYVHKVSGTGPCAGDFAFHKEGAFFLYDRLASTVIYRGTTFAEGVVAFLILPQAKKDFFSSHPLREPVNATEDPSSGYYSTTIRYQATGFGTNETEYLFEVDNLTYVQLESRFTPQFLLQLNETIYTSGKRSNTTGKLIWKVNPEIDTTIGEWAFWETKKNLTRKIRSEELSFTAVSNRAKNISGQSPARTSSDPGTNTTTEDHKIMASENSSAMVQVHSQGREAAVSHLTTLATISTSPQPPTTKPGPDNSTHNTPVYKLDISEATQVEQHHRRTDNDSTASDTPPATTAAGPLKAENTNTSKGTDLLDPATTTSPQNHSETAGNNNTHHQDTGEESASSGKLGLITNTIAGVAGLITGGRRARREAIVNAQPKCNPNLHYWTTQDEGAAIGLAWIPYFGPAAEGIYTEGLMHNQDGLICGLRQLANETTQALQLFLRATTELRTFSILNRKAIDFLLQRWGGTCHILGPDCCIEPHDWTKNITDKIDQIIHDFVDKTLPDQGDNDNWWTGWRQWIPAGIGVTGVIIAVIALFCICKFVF", "experiment": "cell-based or functional assay", "units": {"PRNT50 (ug/ml) for Ebola Zaire (Kikwit strain)": "µg/mL"}}
{"binder": "B1", "PRNT50 (ug/ml) for Ebola Zaire (Kikwit strain)": 1.57}
{"binder": "B2", "PRNT50 (ug/ml) for Ebola Zaire (Kikwit strain)": 0.195}
{"binder": "B3", "PRNT50 (ug/ml) for Ebola Zaire (Kikwit strain)": 6.25}
{"binder": "B4", "PRNT50 (ug/ml) for Ebola Zaire (Kikwit strain)": 3.13}
{"binder": "B5", "PRNT50 (ug/ml) for Ebola Zaire (Kikwit strain)": 3.13}
